In the Human Domainome abundance scans (Beltran et al. 2025):
± gives the uncertainty stated by the source.

B1: Chromodomain-helicase-DNA-binding protein 4, residues 444 to 496; numbered along this chain, Q14839 (parent)
chain: EDDHHMEFCRVCKDGGELLCCDTCPSSYHIHCLNPPLPEIPNGEWLCPRCTCP

Variants of: B1
Assay: abundance fitness (aPCA) (normalised: wild type 0, dead -1); higher = more abundant; growth selection in yeast, the domain comes from the species named
Settings: Homo sapiens
For C21Q, the abundance fitness was -0.76 ± 0.09.
Work on C21M yielded an abundance fitness of -0.955 ± 0.067.
For C21N, the abundance fitness was -0.787 ± 0.07.
Work on C21Y yielded an abundance fitness of -0.871 ± 0.066.
In the case of C21E, the abundance fitness is reported as -0.239 ± 0.1.
Variant C21F has an abundance fitness of -1.02 ± 0.12.
In the case of C21S, the abundance fitness is reported as -0.994 ± 0.063.
Variant C21H has an abundance fitness of -0.745 ± 0.047.
Work on C21L yielded an abundance fitness of -1.07 ± 0.05.
C21D showed an abundance fitness of -0.875 ± 0.086.
Work on C21P yielded an abundance fitness of -0.829 ± 0.048.
With C21A the abundance fitness was -0.71 ± 0.086.
For C21W, the abundance fitness was -1.12 ± 0.1.
With V11R the abundance fitness was 0.012 ± 0.044.
With V11W the abundance fitness was -0.209 ± 0.071.
For V11C, the abundance fitness was -0.255 ± 0.067.
V11P gave an abundance fitness of -0.877 ± 0.07.
V11Q gave an abundance fitness of -0.037 ± 0.043.
Variant V11S has an abundance fitness of -0.159 ± 0.049.
For V11A, the abundance fitness was -0.316 ± 0.065.
Work on V11L yielded an abundance fitness of -0.214 ± 0.048.
Variant V11Y has an abundance fitness of -0.377 ± 0.073.
For V11G, the abundance fitness was -0.135 ± 0.057.
For V11F, the abundance fitness was -0.359 ± 0.067.
V11T gave an abundance fitness of -0.019 ± 0.05.
Variant V11N has an abundance fitness of -0.104 ± 0.078.
In the case of V11I, the abundance fitness is reported as -0.074 ± 0.083.
Work on V11M yielded an abundance fitness of -0.026 ± 0.061.
For V11D, the abundance fitness was -0.103 ± 0.069.
In the case of C20L, the abundance fitness is reported as 0.012 ± 0.043.
C20I gave an abundance fitness of 0.103 ± 0.042.
Variant C20K has an abundance fitness of 0.095 ± 0.078.
C20V showed an abundance fitness of -0.035 ± 0.045.
In the case of C20D, the abundance fitness is reported as 0.012 ± 0.082.
C20R showed an abundance fitness of 0.13 ± 0.048.
Work on C20W yielded an abundance fitness of 0.069 ± 0.056.
Variant C20Q has an abundance fitness of 0.17 ± 0.065.
Variant C20E has an abundance fitness of 0.136 ± 0.065.
In the case of C20P, the abundance fitness is reported as 0.096 ± 0.057.
Variant C20H has an abundance fitness of 0.168 ± 0.065.
For C20F, the abundance fitness was -0.035 ± 0.06.
C20A showed an abundance fitness of 0.099 ± 0.057.
C20M gave an abundance fitness of 0.017 ± 0.064.
C20G gave an abundance fitness of 0.083 ± 0.059.
C20S gave an abundance fitness of 0.093 ± 0.047.
For C20N, the abundance fitness was 0.14 ± 0.069.
In the case of C20Y, the abundance fitness is reported as 0.066 ± 0.049.
In the case of E17R, the abundance fitness is reported as -0.123 ± 0.061.
Variant E17S has an abundance fitness of -0.184 ± 0.053.
For E17D, the abundance fitness was -0.232 ± 0.076.
For E17F, the abundance fitness was -0.395 ± 0.064.
Variant E17K has an abundance fitness of 0.117 ± 0.066.
E17V showed an abundance fitness of -0.215 ± 0.071.
Work on E17H yielded an abundance fitness of -0.906 ± 0.064.
Work on E17L yielded an abundance fitness of -0.535 ± 0.047.
E17P showed an abundance fitness of -0.657 ± 0.06.
Work on E17Y yielded an abundance fitness of -0.644 ± 0.06.
Variant E17A has an abundance fitness of -0.309 ± 0.064.
Work on E17G yielded an abundance fitness of -0.289 ± 0.064.
With E17I the abundance fitness was -0.206 ± 0.06.
Work on E17N yielded an abundance fitness of -0.077 ± 0.062.
For E17T, the abundance fitness was 0.015 ± 0.051.
Variant E17C has an abundance fitness of -0.382 ± 0.12.
Work on E17W yielded an abundance fitness of -0.576 ± 0.081.
Work on E17M yielded an abundance fitness of -0.098 ± 0.06.
Variant E17Q has an abundance fitness of -0.146 ± 0.066.
Y28A gave an abundance fitness of -0.574 ± 0.079.
With Y28P the abundance fitness was -0.667 ± 0.062.
For Y28S, the abundance fitness was -0.566 ± 0.057.
Work on Y28K yielded an abundance fitness of -0.833 ± 0.12.
For Y28H, the abundance fitness was -0.54 ± 0.055.
In the case of Y28F, the abundance fitness is reported as 0.015 ± 0.042.
With Y28G the abundance fitness was -0.605 ± 0.074.
Variant Y28L has an abundance fitness of -0.712 ± 0.058.
Work on Y28N yielded an abundance fitness of -0.528 ± 0.045.
Variant Y28E has an abundance fitness of -0.64 ± 0.082.
Y28Q showed an abundance fitness of -0.657 ± 0.073.
Variant Y28C has an abundance fitness of -0.639 ± 0.099.
With Y28M the abundance fitness was -0.656 ± 0.08.
Work on S27Y yielded an abundance fitness of 0.029 ± 0.059.
With S27F the abundance fitness was -0.177 ± 0.076.
S27M showed an abundance fitness of -0.14 ± 0.076.
With S27Q the abundance fitness was -0.064 ± 0.076.
S27V gave an abundance fitness of -0.057 ± 0.049.
For S27H, the abundance fitness was -0.068 ± 0.059.
S27R showed an abundance fitness of 0.016 ± 0.052.
S27W gave an abundance fitness of -0.198 ± 0.067.
Variant S27D has an abundance fitness of -0.705 ± 0.12.
With S27K the abundance fitness was -0.082 ± 0.073.
For S27C, the abundance fitness was -0.018 ± 0.075.
Work on S27N yielded an abundance fitness of -0.026 ± 0.07.
With S27A the abundance fitness was 0.067 ± 0.062.
S27I gave an abundance fitness of -0.394 ± 0.091.
Variant S27P has an abundance fitness of -0.572 ± 0.075.
Variant S27T has an abundance fitness of -0.044 ± 0.057.
In the case of S27G, the abundance fitness is reported as -0.22 ± 0.057.
Work on S27E yielded an abundance fitness of -0.472 ± 0.12.
D14M gave an abundance fitness of -0.139 ± 0.054.
Work on D14I yielded an abundance fitness of -0.196 ± 0.055.
Work on D14F yielded an abundance fitness of -0.34 ± 0.061.
D14Q showed an abundance fitness of 0.209 ± 0.047.
Variant D14A has an abundance fitness of -0.068 ± 0.075.
Work on D14P yielded an abundance fitness of -1.02 ± 0.094.
D14T gave an abundance fitness of -0.1 ± 0.047.
Variant D14W has an abundance fitness of -0.418 ± 0.063.
In the case of D14L, the abundance fitness is reported as 0.023 ± 0.04.
D14V showed an abundance fitness of -0.089 ± 0.053.
D14E gave an abundance fitness of 0.223 ± 0.076.
D14K gave an abundance fitness of 0.074 ± 0.063.
Variant D14N has an abundance fitness of -0.205 ± 0.062.
Variant D14G has an abundance fitness of 0.152 ± 0.073.
D14Y gave an abundance fitness of -0.412 ± 0.07.
In the case of D14R, the abundance fitness is reported as -0.057 ± 0.052.
In the case of D14S, the abundance fitness is reported as 0.018 ± 0.047.
With D14H the abundance fitness was -0.18 ± 0.059.
Work on K13E yielded an abundance fitness of 0.214 ± 0.061.
With K13M the abundance fitness was -0.2 ± 0.055.
K13T gave an abundance fitness of -0.134 ± 0.041.
Variant K13N has an abundance fitness of -0.199 ± 0.045.
Variant K13P has an abundance fitness of -1.08 ± 0.068.
K13H gave an abundance fitness of -0.286 ± 0.046.
Variant K13D has an abundance fitness of -0.243 ± 0.059.
Variant K13V has an abundance fitness of -0.303 ± 0.046.
Variant K13F has an abundance fitness of -0.267 ± 0.054.
In the case of K13S, the abundance fitness is reported as -0.101 ± 0.049.
For K13G, the abundance fitness was -0.01 ± 0.057.
Work on K13W yielded an abundance fitness of -0.139 ± 0.054.
Work on K13R yielded an abundance fitness of -0.087 ± 0.041.
Variant K13C has an abundance fitness of -0.126 ± 0.054.
Variant K13A has an abundance fitness of 0.085 ± 0.046.
With K13Q the abundance fitness was -0.024 ± 0.043.
For K13Y, the abundance fitness was -0.375 ± 0.065.
Work on K13L yielded an abundance fitness of -0.129 ± 0.042.
For L19P, the abundance fitness was -0.484 ± 0.063.
L19H showed an abundance fitness of -0.189 ± 0.055.
Variant L19D has an abundance fitness of -0.354 ± 0.089.
For L19C, the abundance fitness was -0.075 ± 0.076.
In the case of L19Q, the abundance fitness is reported as -0.157 ± 0.065.
In the case of L19V, the abundance fitness is reported as -0.056 ± 0.059.
L19E showed an abundance fitness of -0.632 ± 0.1.
Variant L19F has an abundance fitness of -0.262 ± 0.073.
L19A showed an abundance fitness of 0.118 ± 0.048.
L19S showed an abundance fitness of -0.291 ± 0.046.
L19R gave an abundance fitness of -0.314 ± 0.044.
Work on L19T yielded an abundance fitness of 0.037 ± 0.05.
Work on L19Y yielded an abundance fitness of -0.276 ± 0.066.
In the case of L19N, the abundance fitness is reported as -0.116 ± 0.079.
L19I showed an abundance fitness of 0.1 ± 0.068.
L19K showed an abundance fitness of -0.033 ± 0.072.
Variant L19M has an abundance fitness of 0.041 ± 0.066.
Variant L19G has an abundance fitness of -0.488 ± 0.052.
Work on G15S yielded an abundance fitness of -0.061 ± 0.044.
G15N gave an abundance fitness of -0.179 ± 0.055.
Variant G15V has an abundance fitness of -0.115 ± 0.059.
Variant G15K has an abundance fitness of 0.08 ± 0.053.
In the case of G15M, the abundance fitness is reported as -0.102 ± 0.055.
Work on G15D yielded an abundance fitness of -0.274 ± 0.089.
In the case of G15C, the abundance fitness is reported as -0.508 ± 0.082.
For G15E, the abundance fitness was 0.057 ± 0.058.
With G15P the abundance fitness was -0.154 ± 0.05.
For G15W, the abundance fitness was -0.317 ± 0.095.
Variant G15Y has an abundance fitness of -0.251 ± 0.076.
In the case of G15Q, the abundance fitness is reported as -0.126 ± 0.06.
With G15T the abundance fitness was 0.012 ± 0.057.
G15L showed an abundance fitness of -0.486 ± 0.064.
Work on G15I yielded an abundance fitness of -0.397 ± 0.081.
Work on G15F yielded an abundance fitness of -0.263 ± 0.049.
